According to patent US20140314790:

Biological target: T1, N3-2A, Modulator of β-cleavage of APP (MoBA)
T1 chain: DAVYYCGLKY

B1: purified β-secretase (protein)
chain: ETDEEPEEPGRRGSFVEMVDNLRGKSGQGYYVEMTVGSPPQTLNILVDTGSSNFAVGAAPHPFLHRYYQRQLSSTYRDLRKGVYVPYTQGKWEGELGTDLVSIPHGPNVTVRANIAAITESDKFFINGSNWEGILGLAYAEIARPDDSLEPFFDSLVKQTHVPNLFSLQLCGAGFPLNQSEVLASVGGSMIIGGIDHSLYTGSLWYTPIRREWYYEVIIVRVEINGQDLKMDCKEYNYDKSIVDSGTTNLRLPKKVFEAAVKSIKAASSTEKFPDGFWLGEQLVCWQAGTTPWNIFPVISLYLMGEVTNQSFRITILPQQYLRPVEDVATSQDDCYKFAISQSSTGTVMGAVIMEGFYVVFDRARKRIGFAVSACHVHDEFRTAAVEGPFVTLDMEDCGYNIPQTDESTLMT
B1 was tested, and the “activity of purified β-secretase on a fluorescent substrate (FRET assay)” value was “N3-2A did not inhibit the activity of purified β-secretase”.
